Measured values reported in doi:10.1101/2022.03.30.486377 (bioRxiv, 2022).

Columns and labels:
[1] = target: SARS-CoV-2 Wuhan-Hu-1 S on 293T cells (SARS-CoV-2 Wuhan-Hu-1, UniProt P0DTC2); assay: flow cytometry on cells
NL63 S on 293T cells = NL63 S on 293T cells (Human coronavirus NL63 (HCoV-NL63)., UniProt Q6Q1S2); assay: flow cytometry on cells
229E S on 293T cells = 229E S on 293T cells (Human coronavirus 229E (HCoV-229E)., UniProt P15423); assay: flow cytometry on cells
[2] = target: T1, SARS-CoV-2 fusion peptide K811[…]825 (SARS-CoV-2); assay: ELISA
T1 chain: KPSKRSFIEDLLFNK

[3] = target: HCoV-HKU1 (isolate N5) S protein (S1+S2 ECD) (Human coronavirus HKU1 (isolate N5) …, UniProt Q0ZME7); assay: ELISA
Sequence of HCoV-HKU1 (isolate N5) S protein (S1+S2 ECD) (Q0ZME7 13-1295): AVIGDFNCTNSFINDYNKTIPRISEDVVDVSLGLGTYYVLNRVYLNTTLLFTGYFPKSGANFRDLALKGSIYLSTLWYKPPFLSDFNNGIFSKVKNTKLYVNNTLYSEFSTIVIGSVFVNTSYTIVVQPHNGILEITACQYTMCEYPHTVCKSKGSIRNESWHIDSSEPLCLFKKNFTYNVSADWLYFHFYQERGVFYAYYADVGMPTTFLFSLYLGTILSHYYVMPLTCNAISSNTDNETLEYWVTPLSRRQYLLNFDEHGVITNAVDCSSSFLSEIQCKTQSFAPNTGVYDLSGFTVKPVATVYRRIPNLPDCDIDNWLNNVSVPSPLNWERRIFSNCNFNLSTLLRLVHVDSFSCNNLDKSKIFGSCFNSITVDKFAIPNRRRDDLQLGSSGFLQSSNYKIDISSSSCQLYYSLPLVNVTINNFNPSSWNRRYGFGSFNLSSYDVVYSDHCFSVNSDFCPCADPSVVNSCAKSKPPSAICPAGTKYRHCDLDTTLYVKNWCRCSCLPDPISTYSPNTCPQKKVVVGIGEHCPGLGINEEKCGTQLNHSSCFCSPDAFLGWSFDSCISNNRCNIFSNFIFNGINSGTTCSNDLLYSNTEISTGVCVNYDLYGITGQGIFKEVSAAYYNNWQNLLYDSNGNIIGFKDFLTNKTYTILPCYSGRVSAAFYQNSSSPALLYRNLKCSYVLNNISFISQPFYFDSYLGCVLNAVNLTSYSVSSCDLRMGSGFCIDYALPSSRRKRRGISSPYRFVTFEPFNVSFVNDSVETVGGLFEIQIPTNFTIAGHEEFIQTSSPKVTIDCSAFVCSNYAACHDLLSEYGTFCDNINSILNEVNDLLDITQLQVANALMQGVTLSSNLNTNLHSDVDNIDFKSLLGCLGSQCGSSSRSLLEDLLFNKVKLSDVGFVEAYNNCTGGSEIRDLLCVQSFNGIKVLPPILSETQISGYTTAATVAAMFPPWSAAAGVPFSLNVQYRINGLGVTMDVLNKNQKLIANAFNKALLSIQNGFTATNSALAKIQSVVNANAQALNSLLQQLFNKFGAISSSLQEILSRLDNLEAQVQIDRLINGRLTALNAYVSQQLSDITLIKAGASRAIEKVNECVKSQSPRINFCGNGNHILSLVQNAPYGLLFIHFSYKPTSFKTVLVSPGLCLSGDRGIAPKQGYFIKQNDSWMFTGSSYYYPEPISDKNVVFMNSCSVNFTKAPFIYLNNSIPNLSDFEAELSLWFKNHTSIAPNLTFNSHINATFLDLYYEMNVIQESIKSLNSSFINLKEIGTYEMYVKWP

[4] = target: HCoV-229E S protein (S1+S2 ECD) (HCoV-229E, strain not named (stand-in: …, UniProt P15423)); assay: ELISA
Sequence of HCoV-229E S protein (S1+S2 ECD) (HCoV-229E, strain not named (P15423 whole entry, looked up, the tested form may be a part): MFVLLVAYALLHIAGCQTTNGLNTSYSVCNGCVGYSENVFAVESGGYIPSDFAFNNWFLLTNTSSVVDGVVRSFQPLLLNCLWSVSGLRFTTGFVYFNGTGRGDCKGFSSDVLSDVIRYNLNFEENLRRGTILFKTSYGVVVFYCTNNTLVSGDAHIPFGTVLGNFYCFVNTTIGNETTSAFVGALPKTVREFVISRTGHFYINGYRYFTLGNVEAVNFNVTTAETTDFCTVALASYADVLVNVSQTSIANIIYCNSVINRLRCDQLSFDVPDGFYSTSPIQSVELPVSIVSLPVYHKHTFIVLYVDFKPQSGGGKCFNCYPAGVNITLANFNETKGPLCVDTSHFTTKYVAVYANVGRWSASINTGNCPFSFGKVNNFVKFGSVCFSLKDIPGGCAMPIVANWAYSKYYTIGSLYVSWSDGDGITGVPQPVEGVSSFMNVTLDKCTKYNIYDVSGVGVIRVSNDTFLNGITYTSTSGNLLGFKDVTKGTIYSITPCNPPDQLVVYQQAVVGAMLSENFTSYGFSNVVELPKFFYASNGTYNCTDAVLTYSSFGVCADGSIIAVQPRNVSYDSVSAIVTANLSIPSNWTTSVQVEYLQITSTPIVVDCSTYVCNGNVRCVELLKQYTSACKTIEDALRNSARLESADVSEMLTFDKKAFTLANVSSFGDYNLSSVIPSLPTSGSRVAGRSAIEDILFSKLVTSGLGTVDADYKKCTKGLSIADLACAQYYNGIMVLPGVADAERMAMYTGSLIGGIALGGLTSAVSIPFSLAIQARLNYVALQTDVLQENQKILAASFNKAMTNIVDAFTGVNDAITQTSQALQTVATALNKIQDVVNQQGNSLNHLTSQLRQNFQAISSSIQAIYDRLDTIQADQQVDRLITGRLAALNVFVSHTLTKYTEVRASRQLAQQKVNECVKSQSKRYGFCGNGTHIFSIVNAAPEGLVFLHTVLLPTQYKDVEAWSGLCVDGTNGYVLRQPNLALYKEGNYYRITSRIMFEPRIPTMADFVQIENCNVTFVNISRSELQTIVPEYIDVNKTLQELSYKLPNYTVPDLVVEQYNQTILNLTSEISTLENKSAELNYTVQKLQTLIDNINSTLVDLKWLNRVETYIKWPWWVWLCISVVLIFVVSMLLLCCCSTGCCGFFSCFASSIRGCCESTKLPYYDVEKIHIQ

[5] = target: HCoV-NL63 S protein (S1+S2 ECD) (HCoV-NL63, strain not named (stand-in: …, UniProt Q6Q1S2)); assay: ELISA
Sequence of HCoV-NL63 S protein (S1+S2 ECD) (HCoV-NL63, strain not named (Q6Q1S2 whole entry, looked up, the tested form may be a part): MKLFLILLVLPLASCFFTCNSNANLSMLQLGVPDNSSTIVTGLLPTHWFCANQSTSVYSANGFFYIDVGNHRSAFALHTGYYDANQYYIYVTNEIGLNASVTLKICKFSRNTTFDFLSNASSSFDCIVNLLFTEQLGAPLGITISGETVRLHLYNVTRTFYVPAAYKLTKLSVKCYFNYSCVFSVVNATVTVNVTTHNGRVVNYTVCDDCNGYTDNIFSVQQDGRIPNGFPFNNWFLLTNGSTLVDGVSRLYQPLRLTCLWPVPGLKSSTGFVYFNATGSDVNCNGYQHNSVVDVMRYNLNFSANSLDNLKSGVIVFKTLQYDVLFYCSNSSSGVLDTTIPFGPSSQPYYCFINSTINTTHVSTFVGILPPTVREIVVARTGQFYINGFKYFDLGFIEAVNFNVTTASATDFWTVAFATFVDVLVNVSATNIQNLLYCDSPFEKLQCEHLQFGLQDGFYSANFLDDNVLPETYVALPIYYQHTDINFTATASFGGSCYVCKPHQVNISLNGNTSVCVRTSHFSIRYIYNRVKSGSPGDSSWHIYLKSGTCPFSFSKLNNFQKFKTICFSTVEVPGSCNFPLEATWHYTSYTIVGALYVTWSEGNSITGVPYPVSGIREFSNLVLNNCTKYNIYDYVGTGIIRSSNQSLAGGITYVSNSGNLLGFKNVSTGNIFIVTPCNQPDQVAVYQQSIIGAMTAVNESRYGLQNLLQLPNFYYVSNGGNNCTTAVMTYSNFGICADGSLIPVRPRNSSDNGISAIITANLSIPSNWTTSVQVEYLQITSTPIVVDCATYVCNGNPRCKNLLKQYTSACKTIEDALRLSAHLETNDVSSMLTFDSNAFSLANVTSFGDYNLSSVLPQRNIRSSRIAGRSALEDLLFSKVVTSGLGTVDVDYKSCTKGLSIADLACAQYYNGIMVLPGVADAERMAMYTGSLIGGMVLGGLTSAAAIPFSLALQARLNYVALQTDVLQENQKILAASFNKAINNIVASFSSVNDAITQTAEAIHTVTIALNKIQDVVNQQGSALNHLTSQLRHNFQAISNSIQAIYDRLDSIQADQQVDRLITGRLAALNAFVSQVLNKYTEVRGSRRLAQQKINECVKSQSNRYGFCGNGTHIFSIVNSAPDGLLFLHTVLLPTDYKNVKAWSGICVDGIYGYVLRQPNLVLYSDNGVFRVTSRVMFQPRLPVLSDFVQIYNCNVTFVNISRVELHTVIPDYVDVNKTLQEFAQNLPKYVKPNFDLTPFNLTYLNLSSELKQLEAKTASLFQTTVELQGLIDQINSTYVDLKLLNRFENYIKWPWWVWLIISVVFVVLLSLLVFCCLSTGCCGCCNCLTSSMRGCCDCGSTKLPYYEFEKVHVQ

[6] = target: MERS-CoV S protein (S1+S2 ECD) (MERS-CoV; strain  in paper, …, UniProt K0BRG7); assay: ELISA
Sequence of MERS-CoV S protein (S1+S2 ECD) (K9N5Q8 18-1296): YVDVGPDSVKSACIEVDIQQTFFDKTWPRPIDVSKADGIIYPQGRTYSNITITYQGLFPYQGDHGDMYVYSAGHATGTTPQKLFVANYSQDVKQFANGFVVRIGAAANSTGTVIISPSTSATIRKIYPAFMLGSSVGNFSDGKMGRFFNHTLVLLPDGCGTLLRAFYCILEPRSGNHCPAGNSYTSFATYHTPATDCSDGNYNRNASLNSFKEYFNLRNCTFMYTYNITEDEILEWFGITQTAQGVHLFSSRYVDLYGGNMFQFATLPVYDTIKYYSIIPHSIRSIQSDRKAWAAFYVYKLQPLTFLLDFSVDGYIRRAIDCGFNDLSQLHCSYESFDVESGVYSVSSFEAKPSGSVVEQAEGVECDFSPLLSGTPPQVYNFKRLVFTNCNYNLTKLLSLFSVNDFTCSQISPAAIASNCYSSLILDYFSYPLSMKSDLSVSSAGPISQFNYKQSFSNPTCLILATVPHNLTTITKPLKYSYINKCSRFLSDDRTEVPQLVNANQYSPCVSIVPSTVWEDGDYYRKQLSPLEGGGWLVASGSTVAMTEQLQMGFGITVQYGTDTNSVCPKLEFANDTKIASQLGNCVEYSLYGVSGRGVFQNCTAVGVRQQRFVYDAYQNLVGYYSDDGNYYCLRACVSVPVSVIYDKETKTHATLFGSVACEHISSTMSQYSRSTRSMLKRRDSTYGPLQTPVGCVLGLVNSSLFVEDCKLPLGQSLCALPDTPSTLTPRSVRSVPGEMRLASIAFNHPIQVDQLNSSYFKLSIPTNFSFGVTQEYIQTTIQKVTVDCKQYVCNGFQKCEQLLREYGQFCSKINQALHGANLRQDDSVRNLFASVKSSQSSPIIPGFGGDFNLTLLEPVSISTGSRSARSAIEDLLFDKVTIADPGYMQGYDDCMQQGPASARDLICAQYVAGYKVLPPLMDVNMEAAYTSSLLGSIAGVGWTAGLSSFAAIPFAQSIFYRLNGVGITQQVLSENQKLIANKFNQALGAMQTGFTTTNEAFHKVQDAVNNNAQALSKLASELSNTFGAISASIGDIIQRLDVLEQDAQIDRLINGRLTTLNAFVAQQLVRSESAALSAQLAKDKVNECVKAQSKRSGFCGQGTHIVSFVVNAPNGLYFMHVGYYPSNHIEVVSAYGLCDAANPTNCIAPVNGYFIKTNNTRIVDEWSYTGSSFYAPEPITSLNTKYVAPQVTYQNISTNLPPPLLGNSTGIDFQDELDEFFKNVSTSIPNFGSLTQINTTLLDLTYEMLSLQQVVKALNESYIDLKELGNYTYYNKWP

[7] = target: SARS-CoV-2 (2019-nCoV) S protein (S1+S2 ECD) (SARS-CoV-2 (2019-nCoV), UniProt P0DTC2); assay: ELISA
[8] = target: HCoV-OC43 S protein (S1+S2 ECD) (Human coronavirus OC43 (HCoV-OC43)., UniProt P36334); assay: ELISA
[9] = target: T1, SARS-CoV-2 fusion peptide K811[…]825; assay: crystal structure

Measured: binding result

B1: C13B8 mAb (antibody, V domains shown)
VH: QVQLQESGPGLVQPSQTLTLTCTVSGDSISNEDYHWTWIRQHPGKGLEWMGYLQYSGNTNYNPSLKSRMTISVDTSKNQFSLRLNSVTAADTAVYFCATSIVLTGMSNKIQPFDYWGQGTLVTVSS
VL: SYELTQPPSVSVSPGQMARITCSGEALPKKYAYWYQQKGGQFPVLVIYKDTERPSGIPERFSGSSSGTIVTLTISGVQPEDEADYYCLSADTSGTWVFGGGTKLTVL
binds: [1] | NL63 S on 293T cells | 229E S on 293T cells | [2] | [3] | [4] | [5] | [6] | [7] | [8]

B2: C13B8 Fab (Fab, V domains shown)
VH: QVQLQESGPGLVQPSQTLTLTCTVSGDSISNEDYHWTWIRQHPGKGLEWMGYLQYSGNTNYNPSLKSRMTISVDTSKNQFSLRLNSVTAADTAVYFCATSIVLTGMSNKIQPFDYWGQGTLVTVSS
VL: SYELTQPPSVSVSPGQMARITCSGEALPKKYAYWYQQKGGQFPVLVIYKDTERPSGIPERFSGSSSGTIVTLTISGVQPEDEADYYCLSADTSGTWVFGGGTKLTVL
binds: [9]

B3: VP12E7 mAb (antibody, V domains shown)
VH: QVQLVQSGGGVVQPGESLRLSCSGSGFTFNNYIMHWVRQAPGQGLDYVSGIGSDGRNTNYGDSVKGRFTISRDNSKDTLYLQMTSLRAEDTAFYYCVKGLDVLRFLDLSTPSGERLDAFDIWGQGTMVTVSS
VL: DIVMTQSPSFLSASVGDRVTITCRASQGISNYLAWYQQKPGKAPHLLIYAASTLQSGVPSRFSGSGSGTEFTLTISSLQPEDFATYYCQQLNSYPLFTFGPGTKVDIE
binds: [1] | NL63 S on 293T cells | 229E S on 293T cells | [2] | [3] | [4] | [5] | [6] | [7] | [8]

B4: VP12E7 Fab (Fab, V domains shown)
VH: QVQLVQSGGGVVQPGESLRLSCSGSGFTFNNYIMHWVRQAPGQGLDYVSGIGSDGRNTNYGDSVKGRFTISRDNSKDTLYLQMTSLRAEDTAFYYCVKGLDVLRFLDLSTPSGERLDAFDIWGQGTMVTVSS
VL: DIVMTQSPSFLSASVGDRVTITCRASQGISNYLAWYQQKPGKAPHLLIYAASTLQSGVPSRFSGSGSGTEFTLTISSLQPEDFATYYCQQLNSYPLFTFGPGTKVDIE
binds: [9]

B5: C13C9 mAb (antibody, V domains shown)
VH: EVQLVQSGPEVKKPGTSARVSCKASGFTSKNTALQWVRQARGQPLEWMGWIDISNYITNYAQKFRGRLTITWDLSASMAYMELSSLRSEDTAVYYCAAVGKDDDVLTGGNKYFDHWGQGTLVTVSS
VL: SYELTQPPSVSVSPGQTARITCSGDALPKKYAYWYQQKSGQAPVLVIHEDDKRPSGIPGRFSASSSGTTATLTISGAQVEDEADYYCYSTDTNDNHAFGSGTKLTVL
binds: [1] | NL63 S on 293T cells | 229E S on 293T cells | [2] | [3] | [4] | [5] | [6] | [7] | [8]

B6: C13C9 Fab (Fab, V domains shown)
VH: EVQLVQSGPEVKKPGTSARVSCKASGFTSKNTALQWVRQARGQPLEWMGWIDISNYITNYAQKFRGRLTITWDLSASMAYMELSSLRSEDTAVYYCAAVGKDDDVLTGGNKYFDHWGQGTLVTVSS
VL: SYELTQPPSVSVSPGQTARITCSGDALPKKYAYWYQQKSGQAPVLVIHEDDKRPSGIPGRFSASSSGTTATLTISGAQVEDEADYYCYSTDTNDNHAFGSGTKLTVL
binds: [9]

B7: C77G12 mAb (antibody, V domains shown)
VH: EVQLVESGGGVVQPGRSLRISCAVSGFTFGSYAMHWVRQAPGKGLEWVGVMSSDGHNEYYADSVKGRFTISRDNSRNKLYLEMNNLRVDDTAVFYCARGSDYVDDSPPLHYWGQGTLVTVSS
VL: DIQLTQSPSSLSASIGDRVTITCRASQDIANKLAWFQQAPGKAPKSLIYAASRLQSGVPSQFSGSGSGTDFTLTIESLQAGDFATYFCQQYDSFPFTFGPGTKVDVK
binds: [1] | NL63 S on 293T cells | 229E S on 293T cells | [2] | [3] | [4] | [5] | [6] | [7] | [8]

B8: C77G12 Fab (Fab, V domains shown)
VH: EVQLVESGGGVVQPGRSLRISCAVSGFTFGSYAMHWVRQAPGKGLEWVGVMSSDGHNEYYADSVKGRFTISRDNSRNKLYLEMNNLRVDDTAVFYCARGSDYVDDSPPLHYWGQGTLVTVSS
VL: DIQLTQSPSSLSASIGDRVTITCRASQDIANKLAWFQQAPGKAPKSLIYAASRLQSGVPSQFSGSGSGTDFTLTIESLQAGDFATYFCQQYDSFPFTFGPGTKVDVK
binds: [9]

B9: VN01H1 mAb (antibody, V domains shown)
VH: EVQLVESGGGLVLPGGSLRLSCSASGFTFSDFSMHWVRQSPGKGLEYVSAITSSGSSTYYPDSVKGRFTISRDNSKNTLYLQMGSLRVEDTAVYWCVKNSDVFRFPHLYFDVWGRGTLVTVSS
VL: not shown
binds: [1] | NL63 S on 293T cells | 229E S on 293T cells | [2] | [3] | [4] | [5] | [6] | [7] | [8]

B10: VN01H1 Fab (Fab, V domains shown)
VH: EVQLVESGGGLVLPGGSLRLSCSASGFTFSDFSMHWVRQSPGKGLEYVSAITSSGSSTYYPDSVKGRFTISRDNSKNTLYLQMGSLRVEDTAVYWCVKNSDVFRFPHLYFDVWGRGTLVTVSS
VL: not shown
binds: [9]
